These results are taken from US20250002605A1 (WUHAN YZY BIOPHARMA, published 2025).

In experiment [1] the target is T1, human EpCAM on the cell surface (human, UniProt P16422 24-314).
T1 construct: whole, on cells; also called EpCAM of cells; HCT116 cells
T1 sequence (looked up): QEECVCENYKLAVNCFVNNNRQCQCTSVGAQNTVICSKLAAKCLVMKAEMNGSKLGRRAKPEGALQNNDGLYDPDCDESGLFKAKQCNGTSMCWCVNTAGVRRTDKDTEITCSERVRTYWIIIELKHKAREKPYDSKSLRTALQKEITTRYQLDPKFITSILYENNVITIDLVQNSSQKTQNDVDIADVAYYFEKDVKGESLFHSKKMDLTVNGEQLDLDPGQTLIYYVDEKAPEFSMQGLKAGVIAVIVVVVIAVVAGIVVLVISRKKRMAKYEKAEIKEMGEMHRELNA
The experiment can be described thus: flow cytometry (FACS) on HCT116 cells, PE anti-human IgG Fc detection.

For experiment [2], the target named is T1, human EpCAM on the cell surface. Description: cell-based or functional assay.
In experiment [3] the target is T2, human EpCAM antigen (SB, Cat: 10694-H08H) (human, UniProt P16422 24-265).
T2 construct: Bought antigen immobilised on a CM5 chip
T2 sequence (looked up): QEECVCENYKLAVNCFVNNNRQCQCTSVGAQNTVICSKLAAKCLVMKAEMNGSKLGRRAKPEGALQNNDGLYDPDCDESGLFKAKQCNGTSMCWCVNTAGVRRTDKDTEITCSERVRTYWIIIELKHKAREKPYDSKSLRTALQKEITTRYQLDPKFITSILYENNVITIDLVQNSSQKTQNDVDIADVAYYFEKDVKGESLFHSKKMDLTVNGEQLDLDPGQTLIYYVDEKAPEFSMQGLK
Description: SPR (Biacore T200), antigen amine-coupled on CM5, antibody as analyte, 1:1 fit; D0 sample. (In general: In SPR one partner is held on a chip, and binding of the other changes the refractive index at the surface.)

Experiment [4] has as its target human CD3 antigen (SB, Cat: CT038-H2508H) (human, UniProt P07766 23-126; P04234 22-105). The description is as above.
The target in experiment [5] is T2, human EpCAM antigen (SB, Cat: …). The experiment can be described thus: SPR (Biacore T200), antigen amine-coupled on CM5, antibody as analyte, 1:1 fit; D14 sample after 14 days at 40 C.

B1: M700 monoclonal antibody (antibody, human IgG1, kappa, V domains shown)
VH: VQLLEQSGAELVRPGTSVKISCKASGYAFTNYWLGWVKQRPGHGLEWIGDIFPGSGNIHYNEKFKGKATLTADKSSSTAYMQLSSLTFEDSAVYFCARLRNWDEPMDYWGQGTTVTVSS
VL: ELVMTQSPSSLTVTAGEKVTMSCKSSQSLLNSGNQKNYLTWYQQKPGQPPKLLIYWASTRESGVPDRFTGSGSGTDFTLTISSVQAEDLAVYYCQNDYSYPLTFGAGTKLEIKR
notes: also called anti-EpCAM monoclonal antibody control
The term EC50 denotes the midpoint of the concentration-response curve. B1 yielded an EC50 in experiment [1] of 0.00178 µM.

B2: M701 (bispecific antibody, human IgG1, kappa)
light: ELVMTQSPSSLTVTAGEKVTMSCKSSQSLLNSGNQKNYLTWYQQKPGQPPKLLIYWASTRESGVPDRFTGSGSGTDFTLTISSVQAEDLAVYYCQNDYSYPLTFGAGTKLEIKRTVAAPSVFIFPPSDEQLKSGTASVVCLLNNFYPREAKVQWKVDNALQSGNSQESVTEQDSKDSTYSLSSTLTLSKADYEKHKVYACEVTHQGLSSPVTKSFNRGEC
heavy: EVQLLEQSGAELVRPGTSVKISCKASGYAFTNYWLGWVKQRPGHGLEWIGDIFPGSGNIHYNEKFKGKATLTADKSSSTAYMQLSSLTFEDSAVYFCARLRNWDEPMDYWGQGTTVTVSSASTKGPSVFPLAPSSKSTSGGTAALGCLVKDYFPEPVTVSWNSGALTSGVHTFPAVLQSSGLYSLSSVVTVPSSSLGTQTYICNVNHKPSNTKVDKKVEPKSCDKTHTCPPCPAPELLGGPSVFLFPPKPKDTLMISRTPEVTCVVVDVSHEDPEVKFNWYVDGVEVHNAKTKPREEQYNSTYRVVSVLTVLHQDWLNGKEYKCKVSNKALPAPIEKTISKAKGQPREPQVYTLPPSRDELTKNQVSLWCLVKGFYPSDIAVEWESNGQPENNYDTTPPVLDSDGSFFLYSDLTVDKSRWQQGNVFSCSVMHEALHNHYTQKSLSLSPGK
chain: not shown
notes: also called bispecific antibody M701
For the molecule B2, the “killing EC50 (PBMC effector cells, HCT116 target cells)” value in experiment [2] turned out to be 0.0692 mg/L. In experiment [1], this molecule returned an EC50 of 0.0105 µM.

B3: M701C (bispecific antibody, human IgG1, kappa)
light: B2 light
heavy: B2 heavy
chain: EVQLVESGGGLVQPGGSLRLSCKASGYTFTRYTMHWVRQAPGKGLEWIGYINPSRGYTNYNQKVKDRFTISRDNSKNTAFLQMDSLRPEDTGVYFCARYYDDHYCLDYWGQGTPVTVSSGGGGSGGGGSGGGGSDIQMTQSPSSLSASVGDRVTITCSASSSVSYMNWYQQTPGKAPKRWIYDTSKLASGVPSRFSGSGSGTDYTFTISSLQPEDIATYYCQQWSSNPFTFGQGTKVEIKRGAAAEPKSCDKTHTCPPCPAPELLGGPSVFLFPPKPKDTLMISRTPEVTCVVVDVSHEDPEVKFNWYVDGVEVHNAKTKPREEQYNSTYRVVSVLTVLHQDWLNGKEYKCKVSNKALPAPIEKTISKAKGQPREPQVYTLPPSRDELTKNQVSLTCRVKGFYPSDIAVEWESNGQPENNYKTTPPVLKSDGSFFLASKLTVDKSRWQQGNVFSCSVMHEALHNHYTQKSLSLSPGK
notes: YBODY format; also called bispecific antibody M701C
In general, Kd refers to the concentration at which binding is half-saturated. Read a high Kd as lower affinity. As for B3, the Kd stood at 0.0186 µM in experiment [3] and 0.0372 µM in experiment [4].

B4: M701F (bispecific antibody, human IgG1, kappa)
light: B2 light
heavy: B2 heavy
chain: QVQLVQSGAEVKKPGASVKVSCKASGYTFISYTMHWVRQAPGQGLEWMGYINPRSGYTHYNQKLKDKATLTADKSASTAYMELSSLRSEDTAVYYCARSAYYDYDGFAYWGQGTLVTVSSGGGGSGGGGSGGGGSDIQMTQSPSSLSASVGDRVTITCSASSSVSYMNWYQQKPGKAPKRLIYDTSKLASGVPSRFSGSGSGTDFTLTISSLQPEDFATYYCQQWSSNPPTFGGGTKVEIKRGAAAEPKSCDKTHTCPPCPAPELLGGPSVFLFPPKPKDTLMISRTPEVTCVVVDVSHEDPEVKFNWYVDGVEVHNAKTKPREEQYNSTYRVVSVLTVLHQDWLNGKEYKCKVSNKALPAPIEKTISKAKGQPREPQVYTLPPSRDELTKNQVSLTCRVKGFYPSDIAVEWESNGQPENNYKTTPPVLKSDGSFFLASKLTVDKSRWQQGNVFSCSVMHEALHNHYTQKSLSLSPGK
notes: YBODY format; also called bispecific antibody M701F
In the case of B4, the Kd in experiment [3] was found to be 0.0179 µM; in experiment [4] it was 0.0613 µM.

B5: M701J (bispecific antibody, human IgG1, kappa)
light: B2 light
heavy: EVQLLEQSGAELVRPGTSVKISCKASGYAFTNYWLGWVKQRPGHGLEWIGDIFPGSGNIHYNEKFKGKATLTADKSSSTAYMQLSSLTFEDSAVYFCARLRNWDEPMDYWGQGTTVTVSSASTKGPSVFPLAPSSKSTSGGTAALGCLVKDYFPEPVTVSWNSGALTSGVHTFPAVLQSSGLYSLSSVVTVPSSSLGTQTYICNVNHKPSNTKVDKKVEPKSCDKTHTCPPCPAPPVAGPSVFLFPPKPKDTLMISRTPEVTCVVVDVSHEAPEVQFNWYVDGVEVHNAKTKPREEQFNSTFRVVSVLTVVHQDWLNGKEYKCKVSNKGLPAPIEKTISKTKGQPREPQVYTLPPCRDELTKNQVSLWCLVKGFYPSDIAVEWESNGQPENNYKTTPPVLDSDGSFFLYSKLTVDKSRWQQGNVFSCSVMHEALHNHYTQKSLSLSPGK
chain: not shown
notes: YBODY format; also called bispecific antibody M701J
B5: the results for the Kd in experiment [5] and in experiment [3] were 0.0187 µM and 0.0182 µM, respectively. In experiment [1], this molecule returned an EC50 of 0.00378 µM.

B6: M701E (bispecific antibody)
light: B2 light
heavy: B2 heavy
chain: not shown
notes: YBODY format; also called bispecific antibody M701E
In the case of B6, the Kd in experiment [3] was found to be 0.0231 µM.

B7: M701G (bispecific antibody, human IgG1, kappa)
light: B2 light
heavy: B2 heavy
chain: EVQLVESGGGLVQPGGSLRLSCAASGYSFTGYTMNWVRQAPGKGLEWVALINPYKGVSTYNQKFKDRFTISVDKSKNTAYLQMNSLRAEDTAVYYCARSGYYGDSDWYFDVWGQGTLVTVSSGGGGSGGGGSGGGGSDIQMTQSPSSLSASVGDRVTITCRASQDIRNYLNWYQQKPGKAPKLLIYYTSRLESGVPSRFSGSGSGTDYTLTISSLQPEDFATYYCQQGNTLPWTFGQGTKVEIKGAAAEPKSCDKTHTCPPCPAPELLGGPSVFLFPPKPKDTLMISRTPEVTCVVVDVSHEDPEVKFNWYVDGVEVHNAKTKPREEQYNSTYRVVSVLTVLHQDWLNGKEYKCKVSNKALPAPIEKTISKAKGQPREPQVYTLPPSRDELTKNQVSLTCRVKGFYPSDIAVEWESNGQPENNYKTTPPVLKSDGSFFLASKLTVDKSRWQQGNVFSCSVMHEALHNHYTQKSLSLSPGK
notes: YBODY format; also called bispecific antibody M701G
Take B7: the dissociation constant (Kd) in experiment [3] came to 0.0197 µM; in experiment [4], 0.0188 µM.

B8: M701D (bispecific antibody, human IgG1, kappa)
light: B2 light
heavy: B2 heavy
chain: EVQLLESGGGLVQPGGSLRLSCAASGFTFSSFPMAWVRQAPGKGLEWVSTISTSGGRTYYRDSVKGRFTISRDNSKNTLYLQMNSLRAEDTAVYYCAKFRQYSGGFDYWGQGTLVTVSSGGGGSGGGGSGGGGSDIQLTQPNSVSTSLGSTVKLSCTLSSGNIENNYVHWYQLYEGRSPTTMIYDDDKRPDGVPDRFSGSIDRSSNSAFLTIHNVAIEDEAIYFCHSYVSSFNVFGGGTKLTVLRQPGAAAEPKSCDKTHTCPPCPAPELLGGPSVFLFPPKPKDTLMISRTPEVTCVVVDVSHEDPEVKFNWYVDGVEVHNAKTKPREEQYNSTYRVVSVLTVLHQDWLNGKEYKCKVSNKALPAPIEKTISKAKGQPREPQVYTLPPSRDELTKNQVSLTCRVKGFYPSDIAVEWESNGQPENNYKTTPPVLKSDGSFFLASKLTVDKSRWQQGNVFSCSVMHEALHNHYTQKSLSLSPGK
notes: YBODY format; also called bispecific antibody M701D
Consider B8, for which the Kd in experiment [3] was 0.0144 µM.
